The text below walks through data of PMC9627735 (RSC Chemical Biology, 2022).

The target in series [1] is recombinant human wildtype Bri2 BRICHOS (human) (UniProt Q9Y287). Kind of series: SEC; rh Bri2 BRICHOS wildtype and D148N at rising concentrations, 0.5 to 200 μmol L^-1 (ESI Fig. S2a, b, S3, S4); monomer to dimer.
Series [2] shares this target. The series can be described thus: SEC; rh Bri2 BRICHOS at pH 6.0, 20 mmol L^-1 NaPi, 0.2 mmol L^-1 EDTA (ESI Fig. S2c, d); monomer to dimer. For orientation: SEC sorts molecules by how far they enter the pores of the column.
Series [3] deals with the molecule itself. The series can be described thus: other fluorescence titration; Trp fluorescence of rh Bri2 BRICHOS T206W monomers, 2 μmol L^-1, 20 mmol L^-1 NaPi, 0.2 mmol L^-1 EDTA, pH 6.3-8.0; excitation 280 nm; monomer to dimer.
Series [4] deals with the molecule itself. The series can be described thus: SEC; rh Bri2 BRICHOS species obtained by thrombin cleavage of isolated NT*-Bri2 BRICHOS species; Superdex 200 PG, 200 GL or 75 PG; 20 mmol L^-1 NaPi, 0.2 mmol L^-1 EDTA.
Series [5] deals with the molecule itself. Kind of series: SEC; rh Bri2 BRICHOS wildtype and D148N at rising concentrations, 0.5 to 200 μmol L^-1 (ESI Fig. S2a, b, S3, S4); monomer to dimer.
Series [6] concerns the molecule itself. The series can be described thus: SEC; purified rh proSP-C BRICHOS variants on Superdex 200 GL.

In the case of “recombinant human wildtype Bri2 BRICHOS (from UniProt Q9Y287 113-231) (domain or fragment)”, the stoichiometry N in series [1] and in series [2] was 2 in each case.

B1: recombinant human Bri2 BRICHOS T206W (domain or fragment, UniProt Q9Y287 113-231, looked up)
chain: QTIEENIKIFEEEEVEFISVPVPEFADSDPANIVHDFNKKLTAYLDLNLDKCYVIPLNTSIVMPPRNLLELLINIKAGTYLPQSYLIHEHMVIWDRIENIDHLGFFIYRLCHDKETYKL
notes: integral membrane protein 2B (ITM2B, Bri2), human, BRICHOS domain, residues 113-231, with Thr206 replaced by Trp; also called rh Bri2 BRICHOS T206W; source: E. coli SHuffle T7, purified (Ni-NTA, thrombin cleavage, second Ni-NTA, SEC); not shown: His6, N-terminal, cleaved; NT*, N-terminal, cleaved
For B1, the binding result in series [3] is reported as “binds”.

B2: recombinant human Bri2 BRICHOS D148N (domain or fragment, UniProt Q9Y287 113-231, looked up)
chain: QTIEENIKIFEEEEVEFISVPVPEFADSDPANIVHNFNKKLTAYLDLNLDKCYVIPLNTSIVMPPRNLLELLINIKAGTYLPQSYLIHEHMVITDRIENIDHLGFFIYRLCHDKETYKL
notes: integral membrane protein 2B (ITM2B, Bri2), human, BRICHOS domain, residues 113-231, with D148N; Occurs as monomers, dimers and large oligomers, isolated by SEC; all species are this one construct; also called rh Bri2 BRICHOS D148N; source: E. coli SHuffle T7, purified (Ni-NTA, thrombin cleavage, second Ni-NTA, SEC); not shown: His6, N-terminal, cleaved; NT*, N-terminal, cleaved
Consider B2, for which the stoichiometry N (in general, a count of units in the complex or per binding partner) in series [4] amounted to 2. Moreover, in series [5], the “ratio of dimers to monomers at 0.5 μmol L^-1” value was around 1.

B3: recombinant human wildtype proSP-C BRICHOS (domain or fragment, UniProt P11686 86-197, looked up)
chain: EHLVTTATFSIGSTGLVVYDYQQLLIAYKPAPGTCCYIMKIAPESIPSLEALTRKVHNFQMECSLQAKPAVPTSKLGQAEGRDAGSAPSGGDPAFLGMAVSTLCGEVPLYYI
notes: prosurfactant protein C (proSP-C), human, BRICHOS domain, residues 86-197; Forms trimers and some monomers on SEC; also called rh wildtype proSP-C BRICHOS; wt proSP-C BRICHOS; source: E. coli Origami 2 (DE3) pLysS, purified (Ni-NTA, ion exchange); not shown: thioredoxin, N-terminal, cleaved
Take B3: the “stoichiometry N” value in series [6] came to 3.

B4: recombinant human proSP-C BRICHOS D105N (domain or fragment, UniProt P11686 86-197, looked up)
chain: EHLVTTATFSIGSTGLVVYNYQQLLIAYKPAPGTCCYIMKIAPESIPSLEALTRKVHNFQMECSLQAKPAVPTSKLGQAEGRDAGSAPSGGDPAFLGMAVSTLCGEVPLYYI
notes: prosurfactant protein C (proSP-C), human, BRICHOS domain, residues 86-197, with D105N; Made by site-directed mutagenesis of the wildtype plasmid; expressed and purified in parallel with the wildtype; also called rh proSP-C BRICHOS D105N; D105N mutant; source: E. coli Origami 2 (DE3) pLysS, purified (Ni-NTA, ion exchange); not shown: thioredoxin, N-terminal, cleaved
Turning to B4, the “stoichiometry N” value in series [6] was 3.
